Results taken from the supplement of paper PMC9112550, “Optimization of the antimicrobial peptide Bac7 by deep mutational scanning” (BMC Biology, 2022).

These sequences were tested on Escherichia coli TOP10 (assay: shrunken log2 fold change of peptide-encoding DNA abundance (4.5 h post-induction vs induction); higher = less antimicrobial activity (less host growth inhibition)). Settings: time post-induction: 4.5 h; library: site-saturation at positions 5, 18, 19, 20.
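Also: peptides expressed intracellularly from a pBAD plasmid library in pooled LB shake-flask culture, induced with 0.3% L-arabinose, DNA abundance read by NGS, three biological replicates, DESeq2 with apeglm shrinkage.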

Point of comparison: RRIRSRPPRLPRPRPRPVVMPRP, “shrunken log2 fold change” value 0.0334. Against it:
- RRIRTRPPRLPRPRPRPCGTPRP — within 0.2 log units, -0.0194
- RRIRGRPPRLPRPRPRPLKSPRP — higher, 0.426
- RRIRNRPPRLPRPRPRPNGCPRP — within 0.2 log units, -0.0605
- RRIRGRPPRLPRPRPRPPTSPRP — higher, 0.879
- RRIRARPPRLPRPRPRPMLAPRP — higher, 0.881
- RRIRFRPPRLPRPRPRPADNPRP — within 0.2 log units, 0.0503
- RRIRYRPPRLPRPRPRPLFAPRP — lower, -0.492
- RRIRQRPPRLPRPRPRPIWTPRP — within 0.2 log units, 0.0198
- RRIRCRPPRLPRPRPRPHSQPRP — within 0.2 log units, -0.0293
- RRIRRRPPRLPRPRPRPTAYPRP — higher, 0.676
- RRIRFRPPRLPRPRPRPDAIPRP — within 0.2 log units, 0.041
- RRIRERPPRLPRPRPRPFFSPRP — lower, -0.358
- RRIRWRPPRLPRPRPRPARMPRP — higher, 0.362
- RRIRHRPPRLPRPRPRPGNPPRP — within 0.2 log units, 0.0424
- RRIRDRPPRLPRPRPRPPTYPRP — lower, -0.383
- RRIRRRPPRLPRPRPRPHPAPRP — higher, 0.583
- RRIRGRPPRLPRPRPRPCEIPRP — within 0.2 log units, 0.128
- RRIRYRPPRLPRPRPRPYQGPRP — within 0.2 log units, 0.00408
- RRIRNRPPRLPRPRPRPFPYPRP — lower, -0.4
- RRIRVRPPRLPRPRPRPICSPRP — within 0.2 log units, -0.154
- RRIRGRPPRLPRPRPRPKAEPRP — higher, 1.35
- RRIRSRPPRLPRPRPRPLECPRP — lower, -0.267
- RRIRYRPPRLPRPRPRPNVCPRP — within 0.2 log units, 0.00285
- RRIRMRPPRLPRPRPRPHIAPRP — within 0.2 log units, 0.13
- RRIRDRPPRLPRPRPRPSIKPRP — lower, -0.491
- RRIRERPPRLPRPRPRPAVGPRP — within 0.2 log units, 0.209
- RRIRWRPPRLPRPRPRPPPGPRP — higher, 1.08
- RRIRARPPRLPRPRPRPCSFPRP — within 0.2 log units, 0.134
- RRIRWRPPRLPRPRPRPLPPPRP — higher, 0.686
- RRIRERPPRLPRPRPRPKKNPRP — within 0.2 log units, -0.0468
- RRIRCRPPRLPRPRPRPHDDPRP — within 0.2 log units, -0.104
- RRIRPRPPRLPRPRPRPDMGPRP — lower, -0.407
- RRIRGRPPRLPRPRPRPFIPPRP — lower, -0.429
- RRIRERPPRLPRPRPRPLMDPRP — within 0.2 log units, -0.134
- RRIRGRPPRLPRPRPRPGYAPRP — within 0.2 log units, 0.222
- RRIRHRPPRLPRPRPRPPKCPRP — within 0.2 log units, 0.145
- RRIRHRPPRLPRPRPRPFHQPRP — within 0.2 log units, -0.01
- RRIRWRPPRLPRPRPRPILGPRP — within 0.2 log units, -0.0119
- RRIRTRPPRLPRPRPRPEQYPRP — within 0.2 log units, -0.0335
- RRIRQRPPRLPRPRPRPDHMPRP — within 0.2 log units, 0.0119
- RRIRTRPPRLPRPRPRPPMDPRP — within 0.2 log units, 0.15
- RRIRLRPPRLPRPRPRPTFRPRP — within 0.2 log units, 0.0593
- RRIRNRPPRLPRPRPRPGTAPRP — within 0.2 log units, -0.0363
- RRIRIRPPRLPRPRPRPFWAPRP — within 0.2 log units, -0.0374
- RRIRPRPPRLPRPRPRPSLLPRP — lower, -0.205
- RRIRGRPPRLPRPRPRPVSGPRP — higher, 0.731
- RRIRTRPPRLPRPRPRPNQAPRP — within 0.2 log units, 0.00454
- RRIRRRPPRLPRPRPRPASCPRP — within 0.2 log units, 0.0969
- RRIRERPPRLPRPRPRPPCTPRP — within 0.2 log units, 0.0136
- RRIRLRPPRLPRPRPRPAIVPRP — within 0.2 log units, 0.0701
- RRIRKRPPRLPRPRPRPQTFPRP — within 0.2 log units, 0.117
- RRIRFRPPRLPRPRPRPFRQPRP — within 0.2 log units, -0.00049
- RRIRPRPPRLPRPRPRPNCYPRP — lower, -0.344
- RRIRRRPPRLPRPRPRPDSCPRP — within 0.2 log units, -0.00351
- RRIRSRPPRLPRPRPRPELFPRP — within 0.2 log units, 0.104
- RRIRYRPPRLPRPRPRPLEWPRP — within 0.2 log units, 0.00157
- RRIRFRPPRLPRPRPRPHHAPRP — lower, -0.291
- RRIRLRPPRLPRPRPRPCAMPRP — within 0.2 log units, 0.00887
- RRIRIRPPRLPRPRPRPMHKPRP — lower, -0.431
- RRIRHRPPRLPRPRPRPWSRPRP — within 0.2 log units, 0.0245
- RRIRERPPRLPRPRPRPYGYPRP — within 0.2 log units, -0.0695
- RRIRERPPRLPRPRPRPTHWPRP — higher, 1.02
- RRIRMRPPRLPRPRPRPPWHPRP — higher, 0.438
- RRIRYRPPRLPRPRPRPVVKPRP — within 0.2 log units, -0.0513
- RRIRWRPPRLPRPRPRPLFTPRP — within 0.2 log units, -0.137
- RRIRWRPPRLPRPRPRPECWPRP — higher, 1.29
- RRIRGRPPRLPRPRPRPILCPRP — within 0.2 log units, 0.174
- RRIRERPPRLPRPRPRPARDPRP — within 0.2 log units, 0.19
- RRIRSRPPRLPRPRPRPHFVPRP — within 0.2 log units, -0.0872
- RRIRRRPPRLPRPRPRPIRIPRP — within 0.2 log units, -0.106
- RRIRLRPPRLPRPRPRPKEPPRP — within 0.2 log units, -0.0333
- RRIRYRPPRLPRPRPRPKLRPRP — within 0.2 log units, -0.111
- RRIRERPPRLPRPRPRPADPPRP — lower, -0.35
- RRIRNRPPRLPRPRPRPRQAPRP — within 0.2 log units, 0.0453
